How the values were obtained:
[1] = target: Tomato SlDXS1, truncated version lacking the N-terminal plastid targeting peptide, 6xHis-tagged (Solanum lycopersicum (tomato)); assay: dynamic light scattering
[2] = target: Tomato SlDXS1, truncated version lacking the N-terminal plastid targeting peptide, 6xHis-tagged (Solanum lycopersicum (tomato)); assay: cross-linking
[3] = target: the molecule itself; assay: SDS-PAGE with non-denaturing loading buffer and immunoblot
[4] = target: the molecule itself; assay: cross-linking

Question: How did the stoichiometry N [1] turn out when “Tomato SlDXS1, truncated version lacking the N-terminal plastid targeting peptide, 6xHis-tagged (enzyme)” was run?
Answer: 2

Question: What about the stoichiometry N [2] of the same molecule?
Answer: 2

B1: Tomato SlDXS1, full-length protein with C-terminal myc tag (pGWB420-SlDXS1), expressed in N. benthamiana leaves (enzyme)
chain: SLSESGEYYTQRPPTPILDTVNYPIHMKNLSLKELKQLADELRSDTIFNVSKTGGHLGSSLGVVELTVALHYVFNAPQDRILWDVGHQSYPHKILTGRRDKMSTLRQTDGLAGFTKRSESEYDCFGTGHSSTTISAGLGMAVGRDLKGRNNNVIAVIGDGAMTAGQAYEAMNNAGYLDSDMIVILNDNRQVSLPTATLDGPVAPVGALSSALSRLQSNRPLRELREVAKGVTKQIGGPMHELAAKVDEYARGMISGSGSTLFEELGLYYIGPVDGHNIDDLIAILKEVRSTKTTGPVLIHVVTEKGRGYPYAERAADKYHGVAKFDPATGKQFKASAKTQSYTTYFAEALIAEAEADKDIVAIHAAMGGGTGMNLFHRRFPTRCFDVGIAEQHAVTFAAGLACEGIKPFCAIYSSFMQRAYDQVVHDVDLQKLPVRFAMDRAGLVGADGPTHCGAFDVTYMACLPNMVVMAPSDEAELFHMVATAAAIDDRPSCFRYPRGNGIGVELPAGNKGIPLEVGKGRILIEGERVALLGYGSAVQNCLDAAIVLESRGLQVTVADARFCKPLDHALIRSLAKSHEVLITVEEGSIGGFGSHVVQFMALDGLLDGKLKWRPIVLPDRYIDHGSPVDQLAEAGLTPSHIAATVFNILGQTREALEVMT
Question: With B1 as the molecule, how does the “stoichiometry N” value [3] read?
Answer: 2

B2: Escherichia coli deoxyxylulose 5-phosphate synthase (EcDXS), 6xHis-tagged, full length (enzyme)
chain: MSFDIAKYPTLALVDSTQELRLLPKESLPKLCDELRRYLLDSVSRSSGHFASGLGTVELTVALHYVYNTPFDQLIWDVGHQAYPHKILTGRRDKIGTIRQKGGLHPFPWRGESEYDVLSVGHSSTSISAGIGIAVAAEKEGKNRRTVCVIGDGAITAGMAFEAMNHAGDIRPDMLVILNDNEMSISENVGALNNHLAQLLSGKLYSSLREGGKKVFSGVPPIKELLKRTEEHIKGMVVPGTLFEELGFNYIGPVDGHDVLGLITTLKNMRDLKGPQFLHIMTKKGRGYEPAEKDPITFHAVPKFDPSSGCLPKSSGGLPSYSKIFGDWLCETAAKDNKLMAITPAMREGSGMVEFSRKFPDRYFDVAIAEQHAVTFAAGLAIGGYKPIVAIYSTFLQRAYDQVLHDVAIQKLPVLFAIDRAGIVGADGQTHQGAFDLSYLRCIPEMVIMTPSDENECRQMLYTGYHYNDGPSAVRYPRGNAVGVELTPLEKLPIGKGIVKRRGEKLAILNFGTLMPEAAKVAESLNATLVDMRFVKPLDEALILEMAASHEALVTVEENAIMGGAGSGVNEVLMAHRKPVPVLNIGLPDFFIPQGTQEEMRAELGLDAAGMEAKIKAWLA
Question: With B2 as the molecule, how does the “stoichiometry N” value [4] read?
Answer: 2

— publication doi:10.1101/2022.06.12.495819 (bioRxiv, 2022)
